Experimental findings from paper PMC6938246 are described below.

pKd: −log10 of the molar value.

For test [1], the target named is filamentous actin (F-actin) (rabbit) (UniProt P68135). Briefly: co-sedimentation.
The target is the same in test [2]. Briefly: single-molecule TIRF microscopy.

utrophin actin-binding domain (CH1–CH2), wild type, sequence (P46939 31-256): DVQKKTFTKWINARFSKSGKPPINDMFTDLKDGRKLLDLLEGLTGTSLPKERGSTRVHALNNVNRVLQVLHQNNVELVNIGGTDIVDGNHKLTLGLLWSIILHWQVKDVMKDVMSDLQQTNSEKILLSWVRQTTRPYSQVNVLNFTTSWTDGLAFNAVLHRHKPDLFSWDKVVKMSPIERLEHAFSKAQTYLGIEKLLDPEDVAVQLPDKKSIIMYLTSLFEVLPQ
utrophin actin-binding domain with residues 1–27 truncated (Δ-n-term), sequence (P46939 28-3433, stated change not applied): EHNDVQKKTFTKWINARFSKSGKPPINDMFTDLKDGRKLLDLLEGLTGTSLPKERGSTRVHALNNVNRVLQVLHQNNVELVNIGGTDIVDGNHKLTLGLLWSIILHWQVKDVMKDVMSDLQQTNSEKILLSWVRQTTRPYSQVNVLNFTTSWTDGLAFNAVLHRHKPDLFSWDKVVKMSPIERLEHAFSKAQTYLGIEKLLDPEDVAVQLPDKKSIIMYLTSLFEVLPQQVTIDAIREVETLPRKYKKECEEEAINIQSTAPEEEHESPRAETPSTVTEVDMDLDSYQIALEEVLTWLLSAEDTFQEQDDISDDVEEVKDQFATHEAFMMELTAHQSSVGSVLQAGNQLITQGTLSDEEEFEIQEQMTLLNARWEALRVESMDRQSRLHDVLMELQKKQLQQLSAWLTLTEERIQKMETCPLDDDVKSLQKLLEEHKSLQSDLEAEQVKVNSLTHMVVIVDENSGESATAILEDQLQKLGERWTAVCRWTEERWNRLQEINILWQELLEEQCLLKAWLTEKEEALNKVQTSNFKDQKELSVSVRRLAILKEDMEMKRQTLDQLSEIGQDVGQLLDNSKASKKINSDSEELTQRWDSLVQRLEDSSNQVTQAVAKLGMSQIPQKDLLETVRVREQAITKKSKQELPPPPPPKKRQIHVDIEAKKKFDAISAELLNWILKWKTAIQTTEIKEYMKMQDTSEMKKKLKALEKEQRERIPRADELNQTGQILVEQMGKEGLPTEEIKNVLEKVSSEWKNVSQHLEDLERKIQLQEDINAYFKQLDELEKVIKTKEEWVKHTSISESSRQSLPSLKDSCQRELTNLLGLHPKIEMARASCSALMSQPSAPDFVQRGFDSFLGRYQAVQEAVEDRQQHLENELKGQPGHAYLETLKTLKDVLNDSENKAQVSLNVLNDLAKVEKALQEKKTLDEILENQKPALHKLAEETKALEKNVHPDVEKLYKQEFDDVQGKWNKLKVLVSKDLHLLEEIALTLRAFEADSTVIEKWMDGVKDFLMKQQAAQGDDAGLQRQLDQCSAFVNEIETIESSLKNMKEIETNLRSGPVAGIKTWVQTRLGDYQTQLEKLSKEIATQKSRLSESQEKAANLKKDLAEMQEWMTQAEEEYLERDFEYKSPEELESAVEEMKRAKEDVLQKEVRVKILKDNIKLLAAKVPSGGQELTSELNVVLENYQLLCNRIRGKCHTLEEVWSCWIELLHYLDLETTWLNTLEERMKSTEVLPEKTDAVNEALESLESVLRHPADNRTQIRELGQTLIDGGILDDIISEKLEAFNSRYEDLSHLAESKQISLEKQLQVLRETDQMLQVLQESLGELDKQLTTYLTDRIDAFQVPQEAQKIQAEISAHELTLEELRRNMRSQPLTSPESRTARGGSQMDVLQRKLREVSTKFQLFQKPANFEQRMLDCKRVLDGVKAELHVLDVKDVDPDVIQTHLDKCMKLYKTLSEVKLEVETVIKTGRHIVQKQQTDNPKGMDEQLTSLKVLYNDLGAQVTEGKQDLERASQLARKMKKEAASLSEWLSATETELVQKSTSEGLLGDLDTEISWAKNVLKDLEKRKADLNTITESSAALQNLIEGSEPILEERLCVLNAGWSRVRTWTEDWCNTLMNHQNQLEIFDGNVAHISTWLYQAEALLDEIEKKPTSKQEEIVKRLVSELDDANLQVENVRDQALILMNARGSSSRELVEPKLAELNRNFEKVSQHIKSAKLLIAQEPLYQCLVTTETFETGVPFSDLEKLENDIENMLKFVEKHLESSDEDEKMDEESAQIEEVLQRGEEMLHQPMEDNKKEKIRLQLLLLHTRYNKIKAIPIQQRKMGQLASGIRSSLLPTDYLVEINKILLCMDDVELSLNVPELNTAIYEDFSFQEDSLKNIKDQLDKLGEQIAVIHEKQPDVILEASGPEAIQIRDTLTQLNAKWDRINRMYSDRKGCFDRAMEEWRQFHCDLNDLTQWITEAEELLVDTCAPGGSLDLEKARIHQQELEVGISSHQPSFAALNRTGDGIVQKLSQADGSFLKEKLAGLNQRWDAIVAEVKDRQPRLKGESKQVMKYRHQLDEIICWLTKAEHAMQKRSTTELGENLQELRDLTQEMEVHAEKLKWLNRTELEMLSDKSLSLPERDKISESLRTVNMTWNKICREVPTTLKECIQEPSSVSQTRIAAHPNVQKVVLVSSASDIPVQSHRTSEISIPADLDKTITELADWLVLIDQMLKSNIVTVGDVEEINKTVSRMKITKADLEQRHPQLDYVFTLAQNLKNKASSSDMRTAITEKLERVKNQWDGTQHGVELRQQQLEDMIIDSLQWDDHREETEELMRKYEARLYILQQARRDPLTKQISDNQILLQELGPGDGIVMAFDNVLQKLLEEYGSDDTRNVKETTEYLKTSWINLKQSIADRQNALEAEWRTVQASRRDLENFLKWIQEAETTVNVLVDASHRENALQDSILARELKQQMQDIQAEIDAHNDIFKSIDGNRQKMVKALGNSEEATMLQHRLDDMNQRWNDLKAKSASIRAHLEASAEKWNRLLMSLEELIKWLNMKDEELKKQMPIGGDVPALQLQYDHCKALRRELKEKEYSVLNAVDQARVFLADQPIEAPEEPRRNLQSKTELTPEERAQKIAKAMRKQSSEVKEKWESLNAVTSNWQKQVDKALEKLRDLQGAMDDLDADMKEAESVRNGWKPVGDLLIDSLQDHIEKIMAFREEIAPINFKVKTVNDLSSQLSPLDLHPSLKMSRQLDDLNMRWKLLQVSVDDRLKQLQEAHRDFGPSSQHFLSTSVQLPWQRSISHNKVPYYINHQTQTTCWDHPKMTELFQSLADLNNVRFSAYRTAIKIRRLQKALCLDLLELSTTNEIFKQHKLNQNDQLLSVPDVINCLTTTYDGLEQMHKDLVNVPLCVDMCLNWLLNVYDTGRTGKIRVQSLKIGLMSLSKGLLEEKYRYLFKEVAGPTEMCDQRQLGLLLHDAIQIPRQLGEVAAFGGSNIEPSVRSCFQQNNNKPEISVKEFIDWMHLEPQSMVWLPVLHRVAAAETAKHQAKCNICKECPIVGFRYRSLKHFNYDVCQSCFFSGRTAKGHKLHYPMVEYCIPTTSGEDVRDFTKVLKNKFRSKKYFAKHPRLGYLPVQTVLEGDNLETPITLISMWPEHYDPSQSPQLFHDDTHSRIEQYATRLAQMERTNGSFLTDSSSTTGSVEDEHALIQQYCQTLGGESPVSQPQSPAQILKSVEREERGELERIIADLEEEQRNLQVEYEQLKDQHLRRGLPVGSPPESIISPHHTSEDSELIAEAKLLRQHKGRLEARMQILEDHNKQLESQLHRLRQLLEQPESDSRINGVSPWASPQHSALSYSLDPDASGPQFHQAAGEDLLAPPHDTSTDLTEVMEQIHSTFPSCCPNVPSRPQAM
plectin actin-binding domain (CH1–CH2) (domain or fragment), sequence (Q15149 60-293): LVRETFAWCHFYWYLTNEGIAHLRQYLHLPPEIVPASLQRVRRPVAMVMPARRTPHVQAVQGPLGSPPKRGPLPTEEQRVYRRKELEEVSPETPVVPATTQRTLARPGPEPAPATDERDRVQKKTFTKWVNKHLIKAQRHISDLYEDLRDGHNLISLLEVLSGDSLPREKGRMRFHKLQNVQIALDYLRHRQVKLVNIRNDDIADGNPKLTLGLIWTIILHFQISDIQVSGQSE

Consider “plectin actin-binding domain (CH1–CH2) (domain or fragment)”, for which the pKd (as a rule, the Kd on a negative log10 scale, so that one unit is a factor of ten) in test [1] was 3.92. Consider “utrophin actin-binding domain (CH1–CH2), wild type (from UniProt P46939 31-256) (domain or fragment)”, for which, in test [1], the pKd was 4.86. The substance further returned a mean dwell time of binding events in test [2] of 0.96 s. In turn, “utrophin actin-binding domain S158C conjugated with maleimide-750Da PEG (from UniProt P46939 31-256) (domain or fragment)” had a pKd in test [1] of 4.27. “utrophin actin-binding domain with residues 1–27 truncated (Δ-n-term) (from UniProt P46939 28-3433) (domain or fragment)” gave a pKd in test [1] of 4.50. Same read-out and setting: under “utrophin actin-binding domain S158C, unconjugated (from UniProt P46939 31-256) (domain or fragment)” stands 4.90. With “utrophin actin-binding domain Q33A T36A (from UniProt P46939 31-256) (domain or fragment)”, in test [1], the negative-log Kd (pKd) was 6.40. This substance gave a mean dwell time of binding events in test [2] of 8.49 s. For the substance “plectin actin-binding domain K278E (domain or fragment)”, the pKd in test [1] is 4.35.
